Reference: patent US20160159906A1 (Genentech, published 2016)

Tests used:
human CD79b [1] = target: T1, human CD79b (human, UniProt P40259 29-229); assay: FACS on BJAB cells (FIG. 3B); bispecific bisfab, monovalent for CD79b
T1 construct: Endogenous CD79b on BJAB / BJAB-luciferase cells (FACS) and on human B cells (killing assays); also called huCD79b; Igβ
T1 sequence: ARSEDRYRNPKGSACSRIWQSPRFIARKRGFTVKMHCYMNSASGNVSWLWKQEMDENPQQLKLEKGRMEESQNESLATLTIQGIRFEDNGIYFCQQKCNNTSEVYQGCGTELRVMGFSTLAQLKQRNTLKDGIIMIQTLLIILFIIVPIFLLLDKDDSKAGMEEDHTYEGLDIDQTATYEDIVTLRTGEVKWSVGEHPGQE
Procedure: (§1) BJAB cells were incubated with anti-CD79b antibody (bivalent, dual arm antibody) or anti-CD79b/CD3 TDB antibody as indicated for 30 minutes on ice. At the end of the incubation, cells were washed with ice cold FACS buffer (lx PBS, 2% BSA, 2mM EDTA), followed by incubation with PE-labeled mouse anti-human IgG antibody (BD bioscience #555787). Flow cytometry analysis was done on a BD LSR analyzer. Antibody binding was expressed as Mean Fluorescence Intensity (MFI) of PE fluorophore. A: The bivalent binding affinity of anti-CD79b clone 2F2 comparing to monovalent binding affinity of anti-CD79b clones 2F2, SN8v28, and SN8new (as K&H TDBs); B: bivalent binding affinity of anti-CD79b clones CD79b.F6 and CD79b.A7 comparing to monovalent binding of anti-CD79b clones CD79b.F6, CD79b.A7, and SN8v28 (as bisfab or K&H TDBs); C: bivalent binding affinity of anti-CD79b clone CD79b.A7.v14 comparing to monovalent binding of anti-CD79b clone CD79b.A7.v14 (as K&H TDBs).
(§2) The monovalent and bivalent anti-CD79b antibody binding affinity was also evaluated in order to better understand the contribution, if any, to B cell killing activity. Binding affinity of dual arm, bivalent anti-CD79b antibodies and bispecific anti-CD79b/ CD3 antibodies using BJAB cells were also analyzed. […]

human CD79b [2] = target: T1, human CD79b; assay: cell-based or functional assay
human CD79b [3] = target: T1, human CD79b; assay: FACS on BJAB cells, PE-labeled mouse anti-human IgG detection, MFI [panel A]
Procedure: as §1, §2

human CD79b [4] = target: T1, human CD79b; assay: FACS on BJAB-luciferase cells, bivalent binding, PE anti-human IgG
Procedure: At the end of the incubation, cells were washed with ice cold FACS buffer (1× PBS, 2% BSA, 2 mM EDTA), followed by incubation with PE-labeled mouse anti-human IgG antibody (BD bioscience #555787). Flow cytometry analysis was done on a BD LSR analyzer. Bivalent binding was expressed as Mean Fluorescence Intensity (MFI) of PE fluorophore.

human CD79b [5] = target: T1, human CD79b; assay: FACS on BJAB cells (FIG. 3C)
Procedure: as §1
Binding affinity of the humanized CD79.A7.v14 of monovalent and bivalent was tested as described above.

[6] = target: T2, human CD79b fused with an Fc domain at the C-terminus (printed at paragraph 314 as Human CD79a fused with an Fc … (human, UniProt P40259 29-159)); assay: Biacore T100 SPR, bivalent IgG over CD79b-Fc immobilized at low density; apparent affinity
T2 construct: also called CD79b immobilized at a low density; Fc-tagged ECD of human CD79b; not shown: Fc domain at the C-terminus
T2 sequence: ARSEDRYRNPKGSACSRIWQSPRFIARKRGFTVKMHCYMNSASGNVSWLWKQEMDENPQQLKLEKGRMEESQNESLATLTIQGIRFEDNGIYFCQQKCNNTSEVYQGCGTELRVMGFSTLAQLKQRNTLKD
Procedure: The binding affinity of the antibodies in this section was determined by BIAcore™ T100. Briefly, BIAcore™ research grade CM5 chips were activated with 1-ethyl-3-(3-dimethylaminopropyl) carbodiimide (EDC) and N-hydroxysuccinimide (NHS) reagents according to the supplier's instructions. Human […] fused with an Fc domain at the C-terminus was coupled to the chips. To achieve more monovalent binding events, low density of ˜12 response units (RU) was immobilized in each flow cell. For measuring the apparent affinity of the antibodies, ˜370 RU of the antigen was immobilized. Unreacted coupling groups were blocked with 1M ethanolamine. For kinetics measurements, three-fold serial dilutions of antibody was injected in PBS-T buffer (0.05% surfactant P20 in PBS) at 25° C. with a flow rate of 30 μl/min. 10 mM glycine, pH 1.7 was used as regeneration buffer at 30 ul/min flow rate for 1 minute. Association rates (kₒₙ) and dissociation rates (koff) were calculated using a 1:1 Langmuir binding model (BIAcore™ T100 Evaluation Software version 2.0). The equilibrium dissociation constant (Kd) was calculated as the ratio koff/kₒₙ.
Thus additional humanized variants were made to evaluate the contribution of mouse framework vernier positions towards binding. Six additional light chains (VL1: CDRs graft+(Y36L), VL2: CDRs graft+(Y36L+L46C), VL3: CDRs graft+(I2V+Y36L+L46C), VL4: CDRs graft+(Y36L+L46S), VL5: CDRs graft+(I2V+Y36L+L46S), VL6: CDRs graft+(L46S)) and seven additional heavy chains (VH1a: CDRs graft+(A93S), VH1b: CDRs graft+(R71V+A93S), VH1c: CDRs graft+(V67A+I69L+R71V+A93S), VH1d:CDRs graft+(V67A+I69L+R71V+T73K+A93S), VH1e: CDRs graft+(V67A+R71V+A93S), VH1f: CDRs graft+(I69L+R71V+A93S), and VH1g: CDRs graft+(V67A+I69L)) were constructed and combined to generate the variants in Table 2. Based on the affinities of these variants, Y36L and L46C in the light chain appear to be key mouse vernier residues. […] In the heavy chain, V67A, I69L, R71V and A93S also contributed to CD79b binding; however R71V appeared to be the key mouse vernier residues based on this mutational analysis.

[7] = target: T3, CD79b.A7, dual arm, bivalent anti-CD79b antibody; assay: FACS on BJAB cells, peptide competition (data not shown)
T3 construct: Mouse hybridoma clone; also called CD79.A7; muCD79b.A7
T3 sequence (VL, as listed by the source): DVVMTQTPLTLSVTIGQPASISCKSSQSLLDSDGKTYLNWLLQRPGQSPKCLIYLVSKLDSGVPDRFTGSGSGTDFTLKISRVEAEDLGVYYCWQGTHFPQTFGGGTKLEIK

B1: bispecific bisfab anti-CD79b/CD3 (CD79b.A7/UCHT1.v9) (bispecific antibody, V domains shown)
VH 1: QVQLQQPGVELVRPGASVKLSCKASGYTFTTYWMNWVRQRPGQGLDWIGMIDPSDSETHYNQMFKDKATLTVDKSSSTAYIQLNSLTSEDSAVYYCSRSLAFWGQGTLVTVSA
VL 1: not shown
VH 2: EVQLVESGGGLVQPGGSLRLSCAASGYSFTGYTMNWVRQAPGKDLEWVALINPYKGVSTYNQKFKDRFTISVDKSKNTAYLQMNSLRAEDTAVYYCARSGYYGDSDWYFDVWGQGTLVTVSS
VL 2: DIQMTQSPSSLSASVGDRVTITCRASQDIRNYLNWYQQKPGKAPKLLIYYTSRLESGVPSRFSGSGSGTDYTLTISSLQPEDFATYYCQQGNTLPWTFGQGTKLELK
notes: Bisfab format; constant parts and the link between the two Fabs are not described; also called CD79b.A7/UHT1.v9
EC50 (human CD79b [1]): 1.4 µg/mL | endogenous B cell killing EC50 (human CD79b [2]): 0.012 µg/mL

B2: SN8.new/UCHT1.v9 bispecific K&H antibody (bispecific antibody, V domains shown)
VH 1: EVQLVESGGGLVQPGGSLRLSCAASGYTFSSYWIEWVRQAPGKGLEWVGEILPGGGDTNYNEIFKGRFTISADTSKNTAYLQMNSLRAEDTAVYYCTRRVPIRLDYWGQGTLVTVSS
VL 1: DIQMTQSPSSLSASVGDRVTITCKASQSVDYDGDSFLNWYQQKPGKAPKLLIYAARKLGRGVPSRFSGSGSGTDFTLTISSLQPEDFATYYCQQSNEDPLTFGQGTKVEIK
VH 2: EVQLVESGGGLVQPGGSLRLSCAASGYSFTGYTMNWVRQAPGKDLEWVALINPYKGVSTYNQKFKDRFTISVDKSKNTAYLQMNSLRAEDTAVYYCARSGYYGDSDWYFDVWGQGTLVTVSS
VL 2: DIQMTQSPSSLSASVGDRVTITCRASQDIRNYLNWYQQKPGKAPKLLIYYTSRLESGVPSRFSGSGSGTDYTLTISSLQPEDFATYYCQQGNTLPWTFGQGTKLELK
EC50 (read off the curve) (human CD79b [3]): ~1 µg/mL

B3: chCD79b.A7 (antibody, V domains shown)
VH: QVQLQQPGVELVRPGASVKLSCKASGYTFTTYWMNWVRQRPGQGLDWIGMIDPSDSETHYNQMFKDKATLTVDKSSSTAYIQLNSLTSEDSAVYYCSRSLAFWGQGTLVTVSA
VL: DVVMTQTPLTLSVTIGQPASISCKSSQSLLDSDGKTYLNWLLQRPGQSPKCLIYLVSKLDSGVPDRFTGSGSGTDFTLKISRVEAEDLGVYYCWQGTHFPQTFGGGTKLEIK
notes: Chimeric form of CD79b.A7 by its prefix ch
EC50 (human CD79b [4]): 0.124 µg/mL

B4: CD79b.A7.v14 (antibody, V domains shown)
VH: EVQLVQSGAEVKKPGASVKVSCKASGYTFTTYWMNWVRQAPGQGLEWIGMIDPSDSETHYNQMFKDRATLTVDTSTSTAYLELSSLRSEDTAVYYCSRSLAFWGQGTLVTVSS
VL: DIVMTQTPLSLPVTPGQPASISCKSSQSLLDSDGKTYLNWLLQKPGQSPQSLIYLVSKLDSGVPDRFSGSGSGTDFTLKISRVEAEDVGVYYCWQGTHFPQTFGQGTKVEIK
notes: VH1c + VL4; bivalent, dual arm IgG; also called huCD79b.A7.v14; CD79.A7.v14
EC50 (human CD79b [5]): 0.0468 µg/mL | Kd [6]: 5 nM | EC50 (human CD79b [4]): 0.068 µg/mL

B5: monovalent CD79.A7.v14 in the K&H TDB format CD79.A7.v14/40G5c (bispecific antibody, V domains shown)
VH 1: EVQLVQSGAEVKKPGASVKVSCKASGYTFTTYWMNWVRQAPGQGLEWIGMIDPSDSETHYNQMFKDRATLTVDTSTSTAYLELSSLRSEDTAVYYCSRSLAFWGQGTLVTVSS
VL 1: DIVMTQTPLSLPVTPGQPASISCKSSQSLLDSDGKTYLNWLLQKPGQSPQSLIYLVSKLDSGVPDRFSGSGSGTDFTLKISRVEAEDVGVYYCWQGTHFPQTFGQGTKVEIK
VH 2: EVQLVQSGAEVKKPGASVKVSCKASGYTFTNYYIHWVRQAPGQGLEWIGWIYPGDGNTKYNEKFKGRATLTADTSTSTAYLELSSLRSEDTAVYYCARDSYSNYYFDYWGQGTLVTVSS
VL 2: DIVMTQSPDSLAVSLGERATINCKSSQSLLNSRTRKNYLAWYQQKPGQPPKLLIYWASTRESGVPDRFSGSGSGTDFTLTISSLQAEDVAVYYCTQSFILRTFGQGTKVEIK
notes: also called CD79b.A7.v14/40G5c K&H
EC50 (human CD79b [5]): 0.22 µg/mL

B6: CD79b.A7.v15 (antibody, V domains shown)
VH: EVQLVQSGAEVKKPGASVKVSCKASGYTFTTYWMNWVRQAPGQGLEWIGMIDPSDSETHYNQMFKDRATLTVDTSTSTAYLELSSLRSEDTAVYYCSRSLAFWGQGTLVTVSS
VL: DVVMTQTPLSLPVTPGQPASISCKSSQSLLDSDGKTYLNWLLQKPGQSPQSLIYLVSKLDSGVPDRFSGSGSGTDFTLKISRVEAEDVGVYYCWQGTHFPQTFGQGTKVEIK
notes: VH1c + VL5; assessed as IgG
Kd [6]: 5 nM

B7: CD79b.A7.v19 (antibody, V domains shown)
VH: EVQLVQSGAEVKKPGASVKVSCKASGYTFTTYWMNWVRQAPGQGLEWIGMIDPSDSETHYNQMFKDRATLTVDKSTSTAYLELSSLRSEDTAVYYCSRSLAFWGQGTLVTVSS
VL: DVVMTQTPLSLPVTPGQPASISCKSSQSLLDSDGKTYLNWLLQKPGQSPQSLIYLVSKLDSGVPDRFSGSGSGTDFTLKISRVEAEDVGVYYCWQGTHFPQTFGQGTKVEIK
notes: VH1d + VL5; assessed as IgG
Kd [6]: 4 nM

B8: CD79b.A7.v20 (antibody, V domains shown)
VH: EVQLVQSGAEVKKPGASVKVSCKASGYTFTTYWMNWVRQAPGQGLEWIGMIDPSDSETHYNQMFKDRATITVDTSTSTAYLELSSLRSEDTAVYYCSRSLAFWGQGTLVTVSS
VL: DIVMTQTPLSLPVTPGQPASISCKSSQSLLDSDGKTYLNWLLQKPGQSPQSLIYLVSKLDSGVPDRFSGSGSGTDFTLKISRVEAEDVGVYYCWQGTHFPQTFGQGTKVEIK
notes: VH1e + VL4; assessed as IgG
Kd [6]: 8 nM

B9: CD79b.A7.v21 (antibody, V domains shown)
VH: EVQLVQSGAEVKKPGASVKVSCKASGYTFTTYWMNWVRQAPGQGLEWIGMIDPSDSETHYNQMFKDRVTLTVDTSTSTAYLELSSLRSEDTAVYYCSRSLAFWGQGTLVTVSS
VL: DIVMTQTPLSLPVTPGQPASISCKSSQSLLDSDGKTYLNWLLQKPGQSPQSLIYLVSKLDSGVPDRFSGSGSGTDFTLKISRVEAEDVGVYYCWQGTHFPQTFGQGTKVEIK
notes: VH1f + VL4; assessed as IgG
Kd [6]: 8 nM

B10: CD79b.A7.v18 (antibody, V domains shown)
VH: EVQLVQSGAEVKKPGASVKVSCKASGYTFTTYWMNWVRQAPGQGLEWIGMIDPSDSETHYNQMFKDRATLTVDKSTSTAYLELSSLRSEDTAVYYCSRSLAFWGQGTLVTVSS
VL: DIVMTQTPLSLPVTPGQPASISCKSSQSLLDSDGKTYLNWLLQKPGQSPQSLIYLVSKLDSGVPDRFSGSGSGTDFTLKISRVEAEDVGVYYCWQGTHFPQTFGQGTKVEIK
notes: VH1d + VL4; assessed as IgG
Kd [6]: 4 nM

ARSEDRYRNPKGSACSRIWQS
binding result [7]: binds
